From patent publication US20200247855A1 (published 2020)

Key:
Experiment in all cases: BLI
CCL11_HUMAN = CCL11_HUMAN (human, UniProt P51671 24-97)
CCL14_HUMAN = target: T1, CCL14_HUMAN (human, UniProt Q16627 22-93)
T1 chain: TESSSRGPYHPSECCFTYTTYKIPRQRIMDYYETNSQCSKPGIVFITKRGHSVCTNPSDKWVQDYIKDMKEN

CCL13_HUMAN = CCL13_HUMAN (human, UniProt Q99616 24-98)
CCL8_HUMAN = target: T2, CCL8_HUMAN (human, UniProt P80075 24-99)
T2 chain: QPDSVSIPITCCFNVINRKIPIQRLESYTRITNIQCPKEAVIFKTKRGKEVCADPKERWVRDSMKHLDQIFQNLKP

Chain of CCL13_HUMAN (Q99616 24-98): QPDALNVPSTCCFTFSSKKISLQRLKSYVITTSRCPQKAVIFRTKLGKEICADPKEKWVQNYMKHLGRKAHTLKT
Chain of CCL11_HUMAN (P51671 24-97): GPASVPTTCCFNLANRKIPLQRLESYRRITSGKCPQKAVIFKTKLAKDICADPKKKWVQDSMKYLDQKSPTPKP

B1: P1243_AMBAM (other)
chain: RNHTEDNSTEYYDYEEARCACPARHLNNTNGTVLKLLGCHYFCNGTLCTAPDGYPCYNLTAQQVRTLTTYPNTSCAVGVCMKGTCVKNGTMEQCFKTP
Kd (CCL11_HUMAN): 36.8 nM
Kd (CCL14_HUMAN): 6.43 nM
Kd (CCL13_HUMAN): 1.64 nM
Kd (CCL8_HUMAN): 193 nM
